# Where “and” joins values, the source holds several entries; their conditions need not be identical. Equal entries are not always repeated.
# T1: FtsZ F285S (untagged) (Escherichia coli, UniProt P0A9A6 1-383, F285S)
# T1 construct: FtsZ of Escherichia coli with F285S (globular domain); Derivative of pLY17 by site-directed mutagenesis; insert starts at codon 2 as in pLY17; source: E. coli BL21(DE3), plasmid pLY19, purified (Ni-NTA); 6×His-SUMO tag removed with Ulp1; not shown: 6×His-SUMO, N-terminal, cleaved
# T1 sequence (looked up): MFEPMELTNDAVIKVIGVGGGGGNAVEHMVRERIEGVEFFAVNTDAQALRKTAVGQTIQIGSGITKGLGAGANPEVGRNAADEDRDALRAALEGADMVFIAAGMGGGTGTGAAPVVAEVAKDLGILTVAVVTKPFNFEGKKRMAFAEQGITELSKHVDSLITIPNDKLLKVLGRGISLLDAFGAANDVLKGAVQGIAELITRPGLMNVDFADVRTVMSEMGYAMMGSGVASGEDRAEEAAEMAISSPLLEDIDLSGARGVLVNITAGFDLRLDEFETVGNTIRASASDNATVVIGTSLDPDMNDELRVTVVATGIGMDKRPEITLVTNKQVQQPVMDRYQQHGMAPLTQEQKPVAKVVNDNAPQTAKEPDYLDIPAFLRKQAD
# T2: FtsZ 1-370 (untagged) (Escherichia coli, UniProt P0A9A6 1-370)
# T2 construct: FtsZ of Escherichia coli, residues 1-370; lacks the CTP; Primers BsaI-out-F and 370XbaI-out-R; forward primer starts at codon 2; source: E. coli BL21(DE3), plasmid pLY341, purified (Ni-NTA); 6×His-SUMO tag removed with Ulp1; not shown: 6×His-SUMO, N-terminal, cleaved
# T2 sequence (looked up): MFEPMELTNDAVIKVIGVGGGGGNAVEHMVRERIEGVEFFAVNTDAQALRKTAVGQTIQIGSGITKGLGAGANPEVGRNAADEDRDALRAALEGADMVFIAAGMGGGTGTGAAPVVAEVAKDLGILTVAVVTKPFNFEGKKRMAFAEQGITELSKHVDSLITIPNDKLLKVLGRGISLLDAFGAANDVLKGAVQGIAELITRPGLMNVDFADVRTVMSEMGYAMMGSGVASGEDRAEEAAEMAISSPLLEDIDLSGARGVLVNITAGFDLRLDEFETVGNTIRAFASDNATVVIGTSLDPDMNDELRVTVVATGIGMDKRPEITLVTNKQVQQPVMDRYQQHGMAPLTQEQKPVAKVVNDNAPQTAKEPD
# T3: FtsZ A376T (untagged) (Escherichia coli, UniProt P0A9A6 1-383, A376T)
# T3 construct: FtsZ of Escherichia coli with A376T (CTP); Derivative of pLY17 by site-directed mutagenesis; source: E. coli BL21(DE3), plasmid pLY22, purified (Ni-NTA); 6×His-SUMO tag removed with Ulp1; not shown: 6×His-SUMO, N-terminal, cleaved
# T3 sequence (looked up): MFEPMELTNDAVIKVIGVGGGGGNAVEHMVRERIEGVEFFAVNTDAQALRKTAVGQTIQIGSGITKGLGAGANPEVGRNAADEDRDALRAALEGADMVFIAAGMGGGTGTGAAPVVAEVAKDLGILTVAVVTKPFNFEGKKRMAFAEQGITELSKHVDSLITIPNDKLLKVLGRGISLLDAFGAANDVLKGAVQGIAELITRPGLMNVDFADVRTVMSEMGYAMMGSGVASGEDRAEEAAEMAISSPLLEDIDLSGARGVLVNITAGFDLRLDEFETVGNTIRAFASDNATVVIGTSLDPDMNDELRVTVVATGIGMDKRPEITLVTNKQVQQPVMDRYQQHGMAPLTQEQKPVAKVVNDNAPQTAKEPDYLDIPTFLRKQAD
# T4: FtsZ (untagged, wild type) (Escherichia coli, UniProt P0A9A6 1-383)
# T4 construct: also called wild-type FtsZ; source: E. coli BL21(DE3), plasmid pLY17, purified (Ni-NTA); 6×His-SUMO tag removed with Ulp1; not shown: 6×His-SUMO, N-terminal, cleaved
# T4 sequence (looked up): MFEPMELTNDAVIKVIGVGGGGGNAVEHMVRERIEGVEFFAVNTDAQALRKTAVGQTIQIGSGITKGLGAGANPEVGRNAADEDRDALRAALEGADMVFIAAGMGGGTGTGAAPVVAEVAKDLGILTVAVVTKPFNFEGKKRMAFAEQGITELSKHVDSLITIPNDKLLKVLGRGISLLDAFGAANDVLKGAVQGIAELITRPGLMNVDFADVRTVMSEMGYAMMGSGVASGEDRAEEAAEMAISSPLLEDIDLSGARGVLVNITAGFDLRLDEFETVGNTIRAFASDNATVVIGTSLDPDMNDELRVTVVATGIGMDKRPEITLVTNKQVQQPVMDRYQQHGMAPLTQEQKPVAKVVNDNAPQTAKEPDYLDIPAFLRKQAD
# What was measured:
# Assay in all cases: BLI; 6×His-ZapC or its mutants (0.5 µM) loaded on Ni-NTA biosensors, untagged FtsZ or its variants in solution; Octet-Red96, 30°C, 1× Pol buffer (50 mM HEPES-NaOH pH 6.8, 50 mM KCl, 10 mM MgCl2); apparent Kd from the signal at the end of association against concentration, one-site fit; three repeats with mean (X) and SD
# Details in all cases: both partners purified
# FtsZ F285S (untagged) = target: T1, FtsZ F285S (untagged)
# FtsZ 1-370 (untagged) = target: T2, FtsZ 1-370 (untagged)
# FtsZ A376T (untagged) = target: T3, FtsZ A376T (untagged)
# [1] = target: T4, FtsZ (untagged, wild type)
binder,measurement,setting,value
"6×His-ZapC (natural protein, ZapC, FtsZ-associated protein of Escherichia coli; Construction of pSD323 is not described; also called His-tagged ZapC; source: E. coli, plasmid pSD323 (pQE80, Plac::6×His-ZapC), purified (Ni-NTA); not shown: His6, N-terminal, kept) not shown",Kd,FtsZ F285S (untagged),5020 nM and 6370 nM and 6130 nM and 5840 nM
same,Kd,FtsZ 1-370 (untagged),1540 nM and 1190 nM and 1260 nM and 1330 nM
same,Kd,FtsZ A376T (untagged),859 nM and 778 nM and 821 nM and 819 nM
same,Kd,[1],377 nM and 395 nM and 488 nM and 420 nM

# — paper PMC12607630, “ZapC crosslinks FtsZ filaments through a dual-binding mechanism modulated by the intrinsically disordered linker of FtsZ in Escherichia coli” (mBio, 2025)
